B1: Eterna 6453699 (Inverted Same State NG 2) (ssRNA)
RNA: AGUUUGUUUGAGAAGGUGAAGUGGAAACAUGAGGAUCACCCAUGUAUUAGGAAGCCUGGUUUUGUCAAGGAUAUCGGGUAAACA
B2: Eterna 5862108 (Exclusion NG 1) (ssRNA)
RNA: UCACGGGAUUGAGGAUAUAUAUUAAUUUUUUUUAUAGAAGGCAAAAUGUUAGAUUAUUCACUAUACAUGAGGAUCACCCAUGUU
B3: Eterna 6450941 (Small Loop Exclusion NG 3) (ssRNA)
RNA: UGGACCGAGCUAUCGGUUGACUGGGAGGAUAUGACAUGAGGAUCACCCAUGUGGGAUCUAAAUUGUCAGAAGGCUCGUUCUGGG
B4: Eterna 7707528 (Exclusion - Tryptophan A) (ssRNA)
RNA: GGGAUGUAGUGAUGUUAUAUUGGAUGUAGACGAGGACCGGUACGGCCGCCACUCGUGAUGGCUGCUAGCACGUUUCGAUGUUUGC
B5: Eterna 1752 (Same State - Tryptophan B) (ssRNA)
RNA: CUUUUACAGUCGGCCGCCACUGACAGCACUUCAAAGACAGUAUAAGGGUAGUGAUGUUACUUUAUCAGGACCGGGACUACCUAAC
B6: Eterna 7612197 (Same State - Arginine B) (ssRNA)
RNA: ACGUAAAGCAGAAGGAGCGUCUUCAAUUUACAUGAGGAUCACCCAUGUUUUGUGAUCAUAUGACAGGUAGGUCGCUGAAGUACGA
B7: Eterna 7732393 (Same State - FMN B) (ssRNA)
RNA: AUUUUUUUGUCAGGAUAUUAGUGUGGGUUUGGUUUGUUAGUGAUGUUGAUAUUUGUUUUAUGUAUUUAAGAAGGGAUUUAGCGGU
B8: Eterna 6033767 (Exclusion 3) (ssRNA)
RNA: AGGGUAGUAGGAUAUACAUGAGGAUCACCCAUGUUUCCAUUACGUGACUGGUCCUAGUGUAGAAGGGCUAGCAC
B9: Eterna 6451659 (Inverted Exclusion NG 1) (ssRNA)
RNA: GCGUGGUUCUAGAAGGUGCUAGCGAUAAGCUAGCAAGGAUAUAGACAUGAGGAUCACCCAUGUCUUAGUGAAAUGGACACACGC
B10: Eterna 7697396 (Exclusion - Arginine B) (ssRNA)
RNA: UGAUAGGACAGAAGGAGCGGGCUAGUCAAAGACUAGCAAACGUUAAUAACAGGAGUGAUGUUCCAGGUAGGUCGCUGUCCUAUCU
B11: Eterna 6401867 (Inverted Exclusion NG 1) (ssRNA)
RNA: CCGACGCCUCAGAAGGCACUCGCAUAAUGCGAGUGAGGAUAUGAGGAUCACCCAUAUCAACGUCGGAGUCACCGAAACGGUGAC
B12: Eterna 6461519 (Inverted Same State NG 1) (ssRNA)
RNA: GUGCCUAACUAGAAGGCCCAAUGCAAAGCAUCGGGAGGAUAUGGGUUUAAUAAAUAAACAUGAGGAUCACCCAUGUGGCACAAA
B13: Eterna 6406790 (Exclusion NG 3) (ssRNA)
RNA: GUACUGAAGCUUUGCUUUAGUCGUACAUGAGGAUCACCCAUGUAGGAUAUGGUAGGCUUUGCUUACUAGAAGGAUAGAGUGAUU
B14: Eterna 6128104 (Same State NG 3) (ssRNA)
RNA: GCUCGAUGAGCUGUCUACAUGAGGAUCACCCAUGUAGAUGGGCAGGAUAUUUACGUGCUUUAUGUAGAGAAGGGCCCAUCGAGC
B15: Eterna 6395528 (Inverted Small Loop Exclusion NG 1) (ssRNA)
RNA: ACAUGGUAGUAGAAGGGUAUUACUUUAGAUACAACCAUUUGUUUAGUUUAUACAGGAUAUGCUUACAUGAGGAUCACCCAUGUU
B16: Eterna 12242 (Exclusion 3) (ssRNA)
RNA: GACUAGGCAGGAUAUACAUGAGGAUCACCCAUGUGUCUGCGAUAGGCACGUGAUUACUGUAGAAGGGCCUUGAC
B17: Eterna 7653809 (Same State - Theophylline B) (ssRNA)
RNA: UGUAUGUGAUUUGAUACCAGACCAGCUGGUGGUACUUGAGGAACACCCAAGUAGGUUUGGGUCCCUUGGCAGCAAAUCGCAUACU
B18: Eterna 11866 (Sensor v3, turn-off variant 2) (ssRNA)
RNA: CUUAGCCUAAAAUCACGCAAGCUUUCUGCUUGUCUUAAGACAUGAGGAUCACCCAUGUCCGGGCUGAACUUAUGGAA
B19: Eterna 6430560 (Small Loop Same State NG 3) (ssRNA)
RNA: ACUUAAAUACCCAAAAGUCGGGCGGAGGAUAUGGAGCUUCCACCACAUGAGGAUCACCCAUGUCUUCAGAAGGCCGCCCUUGGA
B20: Eterna 12641 (Exclusion 3) (ssRNA)
RNA: AAUAGCUAAGGAUAUACAUGAGGAUCACCCAUGUAAAACACUACUUGGAACCGCCUCGGUAGAAGGUAGAAAAU
B21: Eterna 7734974 (Same State - Theophylline A) (ssRNA)
RNA: AAAAUAAAUAAAACACGUAACAUGAAGGAUACCAGACAGGAAACUGUCCCUUGGCAGCCUCUACAUGAGGAUCACCCAUGUCGUG
B22: Eterna 7692390 (Exclusion - Arginine A) (ssRNA)
RNA: AGUAGGAAACUACAAUCCUCUCUUACUGAAGGAGCGCGUGAAAACGCAGGUAGGUCGCAGGAUUGGAGAGUGAUGUUCUCCUUAA
B23: Eterna 6373941 (Exclusion NG 3) (ssRNA)
RNA: GUCACGGUUAAUUCCGUGACGCGCAAACCUUGAGGAUCACCCAAGGAUAUCGACGUCAAUGACGUCGAGAAGGUGGUUGAGCGC
B24: Eterna 6461477 (Inverted Same State NG 1) (ssRNA)
RNA: GCUGCAUGUGAGAAGGCGAUCAUGAAACAUGAUCGAGGAUAUCAUGUAAACAUGAGGAUCACCCAUGUAUGGGUAUUAAGCAGC
B25: Eterna 15533 (Exclusion 1) (ssRNA)
RNA: UCUCGACAUGAGGAUCACCCAUGUCAGGAUAUUGUGUUUGAGGUUUUUUACCUUUUGACAAGAAGGGAUGUGUG
B26: Eterna 6453269 (Small Loop Same State NG 3) (ssRNA)
RNA: CAGCGAUAGCUAAAGUAUCUAUCAGAGGAUAUUCAUGAAACAUGAGGAUCACCCAUGUGAAACUGGGAGAAGGCUGAUAGAUAG
B27: Eterna 5978372 (Brourd's mod of Exclusion 4) (ssRNA)
RNA: GCGUCUCCUGUCAGGAUAUGCACCGGCUCGCCGGCGUAGAAGGGACAUGAGGAUCACCCAUGUGGUCUACACUU
B28: Eterna 6124182 (Same State NG 2) (ssRNA)
RNA: GUAGCAUGAUUAGGAUAUUCAGCGAAUAGAUUGACAUGAGGAUCACCCAUGUGGCGAAAGCCGAGGGAGAAGGGAUGAUGCUAC
B29: Eterna 7709739 (Same State - Tryptophan B) (ssRNA)
RNA: UAUAUAGUGACGGCCGCCACUAUAUUAAUGUUUAGGUUAGAGUGAUGUUUUGAUUAAUAUUUUUAUAGGACCGGGUUAUAUGUUA
B30: Eterna 7734981 (Same State - FMN A) (ssRNA)
RNA: UGUGAGCUGUCGACAAAAGUCGACUAAAGCGAGGAUAUGACGAAAGUCAGAAGGCGUCAAUAAUGGAGUGAUGUUCCUGCUCACU
B31: Eterna 6080103 (Exclusion 1) (ssRNA)
RNA: CCCGGACAUGAGGAUCACCCAUGUUAGGAUAUCUAGAGGAUCUAAACCGAAUAGAUCCAGAGAAGGGAUGUGGG
B32: Eterna 6443967 (Same State NG 2) (ssRNA)
RNA: CUAUAGAUAUGAGGAUAUGUAUAUCCAACAUGAGGAUCACCCAUGUUGAUGAUCACGUAUGUAAAGCAGAAGGCAUAUCUAUAG
B33: Eterna 7652698 (Same State - Arginine A) (ssRNA)
RNA: CGGUCGGUCGGCCGGUGAUUAUGGGAUGAAGGAGCGUGGGAAGCUACAGGUAGGUCGCAUCCGAAACAUCACGAUCACGGAUGUU
B34: Eterna 12668 (Exclusion 3) (ssRNA)
RNA: UAAAAGCUAGGAUAUACAUGAGGAUCACCCAUGUCACGGGUCCACUCAUCCUAUACGUGUAGAAGGAGCGACCC
B35: Eterna 7670795 (Exclusion - Tryptophan B) (ssRNA)
RNA: GGAUAGGACACGGCCGCCACUACCUAGGAUACUAGCAACAUUUGGGUACGUGAGGAUCACCCACGUAGGACCGGGUGUCCUAUCG
B36: Eterna 6083193 (Exclusion 6) (ssRNA)
RNA: CCAAGUUCGUAGGAUAUAGAUGCCUUAGGGCAAUUAGAAGGAUGGACAUGAGGAUCACCCAUGUCGGAUUCUGU
B37: Eterna 7662739 (Exclusion - Arginine A) (ssRNA)
RNA: CGCGGGCCACAUGAGGAUCACCCAUGUGAAGGAGCGGCGAAUAAGCCAGGUAGGUCGCGCAUGAAUAAAUCAUGUAGGUGGCGAA
B38: Eterna 6381351 (Inverted Exclusion NG 3) (ssRNA)
RNA: CGAUAUAUGAAGGGCGAAAGCCCACAUGAGGAUCACCCAUGUAGAAGGCGGGCCGCAACGCGGCCCGAGGAUAUAUAAUAUACA
B39: Eterna 6145156 (Exclusion NG 1) (ssRNA)
RNA: UUAAAUCAUGUAGGAUAUGCAUGGCGAAGCUACGCAGAAGGACAUGAGGAUCACCCAUGUUAUAGCUACCGAAUAAGGUGGCAA
B40: Eterna 9406 (Exclusion 4) (ssRNA)
RNA: UUCAUGUGAGGAUAUGUGAUCUGCUUUCUGUUUAGAUGAUCACAGAAGGCACAUGAGGAUCACCCAUGUAGAUC

The series has as its target MS2 coat protein, dlFG mutant (Escherichia phage MS2, UniProt P03612, del68-81insG). Description: 4 mM Mg2+; no ligand; RNA-MaP array; 100 mM Tris-HCl pH 7.5, 80 mM KCl, 4 mM MgCl2, 0.1 mg/mL BSA, 1 mM DTT, 0.01 mg/mL yeast tRNA, 0.01% Tween-20; protein 1.5 nM to 3 uM; 37 C (Table S3). To be noted: chain copies: 2; label: tethered by stalled RNA polymerase.
A word on the Kd: it is the concentration at which binding is half-saturated. The low end stands for tighter binding, the high end for weaker binding. B1 registered a Kd of 15.2 nM. Take B2: the Kd was found to be 25.5 nM. This Kd is about 1.7-fold higher than that of the molecule before. Under B3 stands 264 nM. Under B4 stands over 3000 nM; under B5, over 3000 nM; under B6, 127 nM.

B7: the Kd is over 3000 nM.

Take B8: the Kd turned out to be 17 nM. With B9, the dissociation constant (Kd) stood at 4.84 nM. Under B10 stands over 3000 nM. In turn, B11 gave a Kd of 11.1 nM. For B12, the affinity, expressed as Kd, was 46 nM. Against the preceding molecule, the Kd is about 4.1-fold higher. Regarding B13, binding was put at a Kd of 54.4 nM. The molecule B14 gave a Kd of 191 nM. As to B15, the Kd amounted to 9.28 nM.

Take B16: the Kd amounted to 330 nM.

As to B17, the Kd worked out at 177 nM. In turn, B18 showed a Kd of 18.5 nM. Next, B19: 100 nM. B20: binding was put at a Kd of 20.6 nM. On to B21, for which the dissociation constant Kd came out at 246 nM. This Kd is about 12-fold higher than that of the molecule before.

As for B22, the Kd is over 3000 nM. With B23, binding was characterised by a dissociation constant (Kd) of 53.8 nM. B24 gave a Kd of 272 nM. Consider B25, for which the Kd is 29.8 nM. As for B26, the Kd was 14.2 nM. For B27, the Kd worked out at 84.3 nM. In turn, B28 came in with a Kd of 165 nM.

As to B29, the Kd is over 3000 nM. With B30, the Kd was over 3000 nM. B31 returned a Kd of 34.3 nM. Take B32: binding was characterised by a dissociation constant (Kd) of 8.38 nM. Turning to B33, binding was characterised by a dissociation constant (Kd) of 74.9 nM. Regarding B34, the affinity, expressed as Kd, was 17.4 nM. B35: the affinity, expressed as Kd, was 12.4 nM. On to B36, for which the Kd stood at 15.8 nM. B37 came in with a Kd of 18.3 nM. Under B38 stands 7.35 nM; under B39, 91.1 nM; under B40, 141 nM.

The record behind these values is paper PMC9170038.
